Test results: the supplement of paper PMC10567573

B1: IQUB (parent)
chain: KIREKEEWIKLDYHRRHNPKTNED
B2: IQUB (parent)
chain: CRNCINLQNEAQKRESFLKYKCLL

Variants of: B1
Assay: protein stability index of a GFP-peptide fusion (GPS, HEK-293T) (PSI 1-6); higher = more stable
Settings: c terminus: a fixed tail appended
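Note: lentivirally expressed fusions sorted by FACS into six bins by GFP to DsRed ratio, PSI derived from sequencing read proportions per bin multiplied by bin number.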

Protein stability index, by site and new letter:
K20: E 5.2 | S 4.81 | V 4.72 | F 2.51 | G 4.84 | T 4.64 | I 4.37 | R 4.66 | Y 4.03 | M 4.53 | H 4.64 | N 4.21 | A 4.52 | D 4.65 | P 5.07 | C 4.27 | Q 4.39 | W 3.08
D24: P 3.66 | Y 3.65 | H 4.04 | S 4.27 | W 3.02 | F 3.27 | G 3.72 | Q 4.13 | N 4.32 | R 3.89 | C 3.29 | I 3.83 | L 3.53 | A 3.91 | K 4.42 | M 3.88 | V 3.21 | T 4.16
P19: Y 4.06 | C 4.61 | I 4.92 | S 4.99 | N 5.13 | K 4.95 | H 4.3 | D 4.77 | Q 4.68 | M 4.71 | W 4.33 | T 4.49 | A 4.59 | L 3.91 | E 4.65 | G 4.46
N22: K 4.29 | M 4.29 | H 4.22 | Y 4.01 | S 4.72 | T 4.6 | A 4.27 | W 2.8 | G 4.79 | P 4.36 | D 4.7 | I 4.01 | L 4.2 | C 4.85 | V 4.15 | Q 4.66 | R 4.03 | F 3.84
N18: V 4.32 | Y 3.71
E23: R 3.72 | N 4.24 | T 4.54 | I 4.13 | C 3.91 | H 4.18 | V 4.18 | L 4.17 | W 5.01 | S 4.25 | P 4.28 | F 4.45 | M 4.17 | Q 4.06 | G 4.44 | Y 3.77 | A 4.52 | D 5.01
T21: W 3.77 | F 4.53 | G 5.12 | C 4.57 | Y 4.52 | E 4.6 | I 4.33 | K 5.05 | S 4.76 | V 4.46 | P 4.74 | N 4.75 | R 4.82 | A 5.18 | D 4.79 | H 4.08 | L 4.13 | Q 4.75 | M 4.1

Variants of: B2
Assay: as above
Settings: c terminus: a fixed tail appended

Protein stability index: each site, then its substitutions
C1: A 2.36 | L 1.72 | N 2.33 | H 2.23 | V 2.78 | P 2.19 | I 1.41 | R 1.94 | G 2.13 | S 1.9 | K 1.9 | W 2.08 | T 2.66 | E 1.87 | D 2.28 | Q 2.01 | Y 1.86 | F 1.5 | M 1.91
N3: H 1.99 | W 1.68 | S 2.59 | G 1.76 | E 1.37 | V 1.7 | C 1.61 | M 1.08 | A 2.14 | F 1.83 | P 1.92 | I 2.71 | R 1.76 | Q 2.7 | Y 1.76 | T 3.29 | K 1.9 | L 1.91 | D 1.92
R2: T 1.93 | G 1.28 | V 1.41 | W 1.98 | Q 1.53 | S 1.86 | D 2.3 | P 2.25 | A 1.95 | L 1.93 | M 1.89 | Y 1.64 | I 1.45 | K 1.92 | H 2.56 | F 1.89 | C 1.66 | E 2.23 | N 2.22
C4: A 2.02
